According to patent publication US11981935B2, “7β-hydroxysteroid dehydrogenase mutants and process for the preparation of ursodeoxycholic acid” (PharmaZell GmbH, priority 2010, dated 2024):

Tests used:
[1] = biological target: 7β-HSDH from Collinsella aerofaciens DSM 3979 (Collinsella aerofaciens, UniProt A4ECA9); format: biochemical
[2] = substrate: C[C@H](CCC(=O)O)[C@H]1CC[C@H]2[C@@H]3C(=O)C[C@@H]4CC(=O)CC[C@]4(C)[C@H]3CC(=O)[C@]12C; test: Enzyme-kinetic investigation of the 7β-HSDH mutants; format: biochemical, Collinsella aerofaciens; details: other: 0.5 mM NADH
From the text: Altogether, the 7β-HSDH mutants G39D, G39D/R40L, G39D/R40I and G39D/R40V were produced. The G39D mutant is produced by Quickchange mutagenesis, and the other mutants are produced by the PCR method of Sanchis et al. (Sanchis J, Fernández L, Carballeira J D, Drone J, Gumulya Y, Höbenreich H, Kahakeaw D, Kille S, Lohmer R, Peyralans J J, Podtetenieff J, Prasad S, Soni P, Taglieber A, Wu S, Zilly F E, Reetz M T. Improved PCR method for the creation of saturation mutagenesis libraries in directed evolution: application to difficult-to-amplify templates. Appl Microbiol Biotechnol. 2008 November; 81(2): 387-97). The following primers were used for the mutagenesis, with the bases shown in italics coding in each case for the exchanged amino acid:
The mutants prepared are evaluated by means of enzyme-kinetic investigations, the results of which are shown as graphs in FIG. 11. […] The need to increase the cofactor concentration in the enzyme-kinetic investigation of the 7β-HSDH mutants is due to the increased semisaturation concentrations for the cofactor NADH in the mutants. From the plots of substrate concentration versus specific enzyme activity, the characteristic curves of Michaelis-Menten kinetics can be seen for the 7β-HSDH mutants, whereas the curve of Michaelis-Menten kinetics with substrate inhibition can be seen from the plot for the unmodified wild-type 7β-HSDH. Accordingly, the classical Michaelis-Menten model (equation 1) was used for evaluating the measurement series of the 7β-HSDH mutants and the Michaelis-Menten model with substrate inhibition was used for the measurement series of the unmodified wild-type 7β-HSDH (equation 2).
[formula] • EAx: specific enzyme activity, U mg^−1=μmol min^−1 mg^−1 • vmax: maximum specific enzyme activity, U mg^−1=μmol min^−1 mg^−1 • cS: substrate or cofactor concentration, mol L^−1 • Km: semisaturation concentration, mol L^−1
The following table gives enzyme-kinetic parameters of the unmodified wild-type 7β-HSDH and the mutants thereof with altered cofactor specificity. NADPH is used as cofactor for the wild type, whereas NADH is used as cofactor for the mutants.

[3] = Photometric activity of 7β-HSDH variants with NADPH or NADH (production example 7); format: biochemical, Collinsella aerofaciens; details: for Specific activity NADH / Volumetric activity NADH: cofactor NADH; for Specific activity NADPH / Volumetric activity NADPH: cofactor NADPH

Sequence of 7β-HSDH from Collinsella aerofaciens DSM 3979 (A4ECA9 whole entry): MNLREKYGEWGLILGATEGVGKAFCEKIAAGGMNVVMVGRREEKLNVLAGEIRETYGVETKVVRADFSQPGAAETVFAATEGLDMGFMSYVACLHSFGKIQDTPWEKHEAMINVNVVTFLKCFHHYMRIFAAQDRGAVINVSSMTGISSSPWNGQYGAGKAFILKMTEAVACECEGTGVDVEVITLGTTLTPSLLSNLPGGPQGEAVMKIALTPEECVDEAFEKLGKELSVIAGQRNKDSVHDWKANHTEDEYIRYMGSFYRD

Molecule: NC(=O)c1ccc[n+]([C@@H]2O[C@H](COP(=O)([O-])OP(=O)(O)OC[C@H]3O[C@@H](n4cnc5c(N)ncnc54)[C@H](OP(=O)(O)O)[C@@H]3O)[C@@H](O)[C@H]2O)c1 [NADP^+]
- kcat [1]: 944.95 1 μmol/(μmol × min)
- Km ([1]; pH 8): 5.32 µM

Molecule: NC(=O)C1=CN([C@@H]2O[C@H](COP(=O)(O)OP(=O)(O)OC[C@H]3O[C@@H](n4cnc5c(N)ncnc54)[C@H](OP(=O)(O)O)[C@@H]3O)[C@@H](O)[C@H]2O)C=CC1 [NADPH]
- kcat [1]: 1033.44 1 μmol/(μmol × min)

B1: Collinsella aerofaciens 7β-HSDH mutant G39D, SEQ ID NO:37 (parent SEQ ID NO:2) (Collinsella aerofaciens ATCC 25986; G39D) (protein)
chain: MNLREKYGEWGLILGATEGVGKAFCEKIAAGGMNVVMVDRREEKLNVLAGEIRETYGVETKVVRADFSQPGAAETVFAATEGLDMGFMSYVACLHSFGKIQDTPWEKHEAMINVNVVTFLKCFHHYMRIFAAQDRGAVINVSSMTGISSSPWNGQYGAGKAFILKMTEAVACECEGTGVDVEVITLGTTLTPSLLSNLPGGPQGEAVMKIALTPEECVDEAFEKLGKELSVIAGQRNKDSVHDWKANHTEDEYIRYMGSFYRD
notes: made in house
- Km [2]: 660 ± 120 µM
- Vmax [2]: 2.9 µmol/min/mg
- Specific activity NADH [3]: 0.1 U/mg
- Volumetric activity NADH [3]: 2 U/ml
- Specific activity NADPH [3]: 5.1 U/mg
- Volumetric activity NADPH [3]: 119 U/ml

B2: G39D R40I: 7β-HSDH double mutant G39D/R40I, SEQ ID NO:39 (protein)
chain: MNLREKYGEWGLILGATEGVGKAFCEKIAAGGMNVVMVDIREEKLNVLAGEIRETYGVETKVVRADFSQPGAAETVFAATEGLDMGFMSYVACLHSFGKIQDTPWEKHEAMINVNVVTFLKCFHHYMRIFAAQDRGAVINVSSMTGISSSPWNGQYGAGKAFILKMTEAVACECEGTGVDVEVITLGTTLTPSLLSNLPGGPQGEAVMKIALTPEECVDEAFEKLGKELSVIAGQRNKDSVHDWKANHTEDEYIRYMGSFYRD
- Specific activity NADH [3]: 0.8 U/mg
- Volumetric activity NADH [3]: 21 U/ml
- Specific activity NADPH [3]: 0 U/mg
- Volumetric activity NADPH [3]: 0 U/ml

B3: Collinsella aerofaciens 7β-HSDH mutant G39D R40L, SEQ ID NO:38 (parent SEQ ID NO:2) (Collinsella aerofaciens ATCC 25986; G39D/R40L) (protein)
chain: MNLREKYGEWGLILGATEGVGKAFCEKIAAGGMNVVMVDLREEKLNVLAGEIRETYGVETKVVRADFSQPGAAETVFAATEGLDMGFMSYVACLHSFGKIQDTPWEKHEAMINVNVVTFLKCFHHYMRIFAAQDRGAVINVSSMTGISSSPWNGQYGAGKAFILKMTEAVACECEGTGVDVEVITLGTTLTPSLLSNLPGGPQGEAVMKIALTPEECVDEAFEKLGKELSVIAGQRNKDSVHDWKANHTEDEYIRYMGSFYRD
notes: made in house
- Km [2]: 560 ± 80 µM
- Vmax [2]: 1.6 µmol/min/mg

B4: Collinsella aerofaciens 7β-HSDH mutant G39D R40V, SEQ ID NO:40 (parent SEQ ID NO:2) (Collinsella aerofaciens ATCC 25986; G39D/R40V) (protein)
chain: MNLREKYGEWGLILGATEGVGKAFCEKIAAGGMNVVMVDVREEKLNVLAGEIRETYGVETKVVRADFSQPGAAETVFAATEGLDMGFMSYVACLHSFGKIQDTPWEKHEAMINVNVVTFLKCFHHYMRIFAAQDRGAVINVSSMTGISSSPWNGQYGAGKAFILKMTEAVACECEGTGVDVEVITLGTTLTPSLLSNLPGGPQGEAVMKIALTPEECVDEAFEKLGKELSVIAGQRNKDSVHDWKANHTEDEYIRYMGSFYRD
notes: made in house
- Km [2]: 880 ± 20 µM
- Vmax [2]: 2.69 µmol/min/mg

B5: Collinsella aerofaciens 7β-HSDH mutant G39D R40I, SEQ ID NO:39 (parent SEQ ID NO:2) (Collinsella aerofaciens ATCC 25986; G39D/R40I) (protein)
chain: MNLREKYGEWGLILGATEGVGKAFCEKIAAGGMNVVMVDIREEKLNVLAGEIRETYGVETKVVRADFSQPGAAETVFAATEGLDMGFMSYVACLHSFGKIQDTPWEKHEAMINVNVVTFLKCFHHYMRIFAAQDRGAVINVSSMTGISSSPWNGQYGAGKAFILKMTEAVACECEGTGVDVEVITLGTTLTPSLLSNLPGGPQGEAVMKIALTPEECVDEAFEKLGKELSVIAGQRNKDSVHDWKANHTEDEYIRYMGSFYRD
notes: made in house
- Km [2]: 920 ± 170 µM
- Vmax [2]: 4.64 µmol/min/mg
